Measurements from the supplement of paper PMC9170038.

System: MS2 coat protein
Test: apparent KD of MS2 coat protein; designed switch direction (-1 OFF switch, 1 ON switch): 1; higher = weaker reporter binding
Method in brief: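 An oligonucleotide input, 200 uM small-molecule ligand, or no input was present during titration of SNAP-549-labelled MS2 coat protein, which was doubled from 0.7 or 1.5 nM to 3 µM. Designed RNA switches had been transcribed on Illumina chips by stalled E. coli RNA polymerase. Apparent KD per design is the median over clusters of curves fitted to normalised cluster fluorescence.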

[1] = input ligand: microRNA oligo, concentration not stated
[2] = Eterna round: R95, input ligand: FMN 200 uM
[3] = Eterna round: R95, input ligand: microRNA oligo, concentration not stated
[4] = Eterna round: R95, input ligand: none

GCUAGAAAUAAAGCCAACAUGAGGAUCACCCAUGUAUGUUGGCAGGAUAUCGUUUGCUUUGCAAACGAGAAGGGCCAAACUAGC [Mat - Same State NG 3 - JL Mod - D1] (Eterna round: R96, puzzle: Same State NG 3)
apparent KD of MS2 coat protein (input ligand: FMN 200 uM): 57 nM
apparent KD of MS2 coat protein [1]: 127 nM
apparent KD of MS2 coat protein (input ligand: none): 129 nM

CGUUCUUACUCGGUACGGUGAGUAGAGGAACAUGAGGAUCACCCAUGUUUGAGCUUUUUGCUCGUGAUUAACAGUUG [JR_SHM208a_Sub015] (puzzle: Sensor for hsa-mir-208a)
apparent KD of MS2 coat protein [2]: 92.2 nM
apparent KD of MS2 coat protein [3]: 102 nM
apparent KD of MS2 coat protein [4]: 149 nM

GCUGCAAUUAACGCCUACAUGAGGAUCACCCAUGUAUGUAGGCAGGAUAUCGUUUGCAAAGCAAACGAGAAGGGCUGUAGUAGC [Mat - Same State NG 3 - JL Mod - D37] (Eterna round: R96, puzzle: Same State NG 3)
apparent KD of MS2 coat protein (input ligand: FMN 200 uM): 65.4 nM
apparent KD of MS2 coat protein [1]: 83.4 nM
apparent KD of MS2 coat protein (input ligand: none): 113 nM

GAGGAUGAUUUACAGGAUAUAUAGAAGAUGACAUGAGGAUCACCCAUGUAAGAGAGAGGAGGGAGAUAGAAGGGUAAGGGAUGUG [JR_SS2_Sub41] (puzzle: Same State 2)
apparent KD of MS2 coat protein [2]: 35.4 nM
apparent KD of MS2 coat protein [3]: 27.8 nM
apparent KD of MS2 coat protein [4]: 49.6 nM

GGUAGGUUACUACCAGACAUGAGGAUCACCCAUGUAAGUGGGAAGGAUAUGGUACCGUUUCGGUACCAGAAGGUCCUAAAUGAG [JL SSNG3 1.46] (Eterna round: R96, puzzle: Same State NG 3)
apparent KD of MS2 coat protein (input ligand: FMN 200 uM): 332 nM
apparent KD of MS2 coat protein [1]: 1650 nM
apparent KD of MS2 coat protein (input ligand: none): 1220 nM

GCACAUGAGGAUCACCCAUGUGCGAGAAAGACGGACCGGAUACAGGAUAUGCGCGAACGGAAGACGCAGAAGGGUGACCAAAAC [Anmaed] (Eterna round: R96, puzzle: Same State NG 3)
apparent KD of MS2 coat protein (input ligand: FMN 200 uM): 64.1 nM
apparent KD of MS2 coat protein [1]: 38.2 nM
apparent KD of MS2 coat protein (input ligand: none): 40.6 nM

AUAAGUUUGAUGCUCGUCUCUCCGUACAAACAUGAGGAUCACCCAUGUGGUCGGGAAGUAGCCCGGCCGGUAUGGCC [Atusri] (puzzle: Sensor for hsa-mir-208a)
apparent KD of MS2 coat protein [2]: 16.7 nM
apparent KD of MS2 coat protein [3]: 14.1 nM
apparent KD of MS2 coat protein [4]: 15.8 nM

UACAAUCUAUCUGAGGAUAUCAUGAAGAAAACAUGAGGAUCACCCAUGUGCAGGAUAACUGCAAAUGAGAAGGCAGAUAGAUUGU [Mat - Same State 2 - Mod - D5] (puzzle: Same State 2)
apparent KD of MS2 coat protein [2]: 8.19 nM
apparent KD of MS2 coat protein [3]: 18.5 nM
apparent KD of MS2 coat protein [4]: 18 nM

AUAGUUGCCGAAGGAUAUGAUGAUGAUCACACAUCAGAAGGUCGGCUAUUGGGUGGACAUGAGGAUCACCCGUGUUCUUUGGUC (Eterna round: R96, puzzle: Same State NG 1)
apparent KD of MS2 coat protein (input ligand: FMN 200 uM): 96.1 nM
apparent KD of MS2 coat protein [1]: 79.5 nM
apparent KD of MS2 coat protein (input ligand: none): 103 nM

GGACGUCAUCUCACUGAUUAAACAUGAGGAUCACCCAUGUCAGAGGAUAUGAGUCCGAUUAGGACUCAGAAGGCUGUGACGUCC [Fiskers NG3ss - 46] (Eterna round: R96, puzzle: Same State NG 3)
apparent KD of MS2 coat protein (input ligand: FMN 200 uM): 19.6 nM
apparent KD of MS2 coat protein [1]: 9.14 nM
apparent KD of MS2 coat protein (input ligand: none): 16 nM

GCACUGGCGGUAGGAUAUCUAGGAUAUGGGAAAGACUAAGUCUGUAGGUCACCUAACCCAGAAGGAGAGAAGGACCCUGUAAGG [pwkr ssNG2 2FMN + F9.22] (Eterna round: R96, puzzle: Same State NG 2)
apparent KD of MS2 coat protein (input ligand: FMN 200 uM): 6.55 nM
apparent KD of MS2 coat protein [1]: 1.33 nM
apparent KD of MS2 coat protein (input ligand: none): 18.1 nM

UUGCGGGCUUGAGGAUAUUGAGUACAUAUGUUUAACAUGAGGAUCACCCAUGUGGGUUGCGGUGUCGAGAAGGUGGCUUCCUGC [salish99_SSNG2_r04_814] (Eterna round: R96, puzzle: Same State NG 2)
apparent KD of MS2 coat protein (input ligand: FMN 200 uM): 99.2 nM
apparent KD of MS2 coat protein [1]: 76.7 nM
apparent KD of MS2 coat protein (input ligand: none): 91.5 nM

UUUUUGAUCCGAGGAUAUCCUUUUUUCUUACAUGAGGAUCACCCAUGUAAAGGGAUUGAGUUGUAGGAGAAGGCGGUUUUUUUU [JR_SSNG2_Sub060] (Eterna round: R96, puzzle: Same State NG 2)
apparent KD of MS2 coat protein (input ligand: FMN 200 uM): 17.5 nM
apparent KD of MS2 coat protein [1]: 32.4 nM
apparent KD of MS2 coat protein (input ligand: none): 32.3 nM

GCACUGGCGGUAGGAUAUCUAGGAUAUGGGAAAGACUAAGUCUGUAGGUCACCUAACCCAGAAGGAGAGAAGGACACCGAAAGG [pwkr ssNG2 2FMN + F9.20] (Eterna round: R96, puzzle: Same State NG 2)
apparent KD of MS2 coat protein (input ligand: FMN 200 uM): 115 nM
apparent KD of MS2 coat protein [1]: 16.5 nM
apparent KD of MS2 coat protein (input ligand: none): 12.9 nM

UUAAUGAUGAUAGGAUAUACAUGAGGAAUUCUCGUAGAAGGAUCAUGACAUGAGGAUCACCCAUGUAACGCUCCGUAGAGCGUA [JL SSNG1 1.15] (Eterna round: R96, puzzle: Same State NG 1)
apparent KD of MS2 coat protein (input ligand: FMN 200 uM): 572 nM
apparent KD of MS2 coat protein [1]: 385 nM
apparent KD of MS2 coat protein (input ligand: none): 1060 nM
